Data from US20180282403A1, “AGENTS FOR REDUCING THE ACTIVITY OF GDF15” (GENAGON THERAPEUTICS AB, priority 2015, published 2018).
No end group written: not given here.

T1: GDF15 (Homo sapiens, UniProt Q99988)
T1 construct: purchased Abcam
T1 sequence (Q99988 197-308 limits assumed): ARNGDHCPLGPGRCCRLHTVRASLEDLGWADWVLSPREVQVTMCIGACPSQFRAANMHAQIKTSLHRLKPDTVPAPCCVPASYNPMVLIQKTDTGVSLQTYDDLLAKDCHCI

T2: QRFPR (Homo sapiens, UniProt Q96P65)
T2 construct: endogenous in cells
T2 sequence (Q96P65 1-431): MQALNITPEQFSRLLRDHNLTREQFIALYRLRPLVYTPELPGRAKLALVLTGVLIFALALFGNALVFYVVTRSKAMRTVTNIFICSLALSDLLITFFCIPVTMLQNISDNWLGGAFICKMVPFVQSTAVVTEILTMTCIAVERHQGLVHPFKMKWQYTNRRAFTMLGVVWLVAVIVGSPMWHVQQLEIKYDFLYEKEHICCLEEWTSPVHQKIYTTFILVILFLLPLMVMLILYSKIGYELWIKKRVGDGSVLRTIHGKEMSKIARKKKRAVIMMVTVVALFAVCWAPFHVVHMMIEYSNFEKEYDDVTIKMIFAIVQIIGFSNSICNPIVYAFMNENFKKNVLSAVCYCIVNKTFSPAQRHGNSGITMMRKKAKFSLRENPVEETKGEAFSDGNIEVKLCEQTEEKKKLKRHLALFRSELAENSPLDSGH

T3: Growth and differentiation factor 15 (GDF15) (UniProt Q99988 197-308, limits assumed)
T3 construct: Purchased GDF15 added to cells, pull-downs, peptide arrays and ELISA; also called MIC1
T3 sequence (looked up): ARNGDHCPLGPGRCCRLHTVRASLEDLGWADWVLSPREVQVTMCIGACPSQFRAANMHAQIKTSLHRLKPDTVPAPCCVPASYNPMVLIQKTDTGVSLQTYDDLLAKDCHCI


Assays:
[1] = target: T1, GDF15; assay: Pull down of GDF15 by Fc fusion proteins with stringent washes; assay type: binding; details: 20 μg Fc fusion protein, 0.5 μg GDF15, protein-G bead, FIG. 27
Procedure: 20 μg Fc fusion protein constructs were incubated with 0.5 μg GDF15 and protein-G bead with mixing for 6 hrs in +4 C in PBST+1% BSAs. Wash 6 times: 3 times PBST, change tubes, 2 washes PBST+220 mM NaCl. Last wash PBS. The beads were collected using a table-top centrifuge set at 500 g for 5 minutes between washes. Detection The material was loaded on a 4-12% gradient gel, run at 100 volt, transferred to PVDF membrane using a Turbo Tank blot system, blocked by PBS with 3% BSA 1 hr RT, and incubated with RD systems a monoclonal anti-GDF15 antibody overnight. A secondary antibody: mouse HRP 1:2000 was used for detection. The size of band was estimated by comparing with a seeblue2 protein ladder marker run in an adjacent lane.
The fragments from the receptors were selected based on previous results including array data indicating direct interaction with GDF15. In the array, the interaction is between a peptide monomer and the ligand.

[2] = target: T1, GDF15; assay: ELISA of GDF15 binding to immobilised biotinylated CLPTM1 derived peptides; details: for binding of GDF15 to immobilised polypeptide: cut-off approximately greater than or equal to 0.1 OD
Procedure: (§1) Biotinylated synthetic peptide fragments from CLPTM1 (JPT peptides, Germany) were immobilized in a streptavidin 96 well plate (#15500 Pierce) at 1 μM in PBS over night at +4° C. Plate was washed 4 times in 300 μl PBS with 0.05% Tween-20 (wash buffer). The plate was blocked with PBS 1% BSA and 0.05% Tween-20 (blocking buffer) for 1.5 hours at room temperature then washed 4 times in wash buffer. GDF15 ligand (Abcam) was added in blocking buffer at 100 ng/ml at incubated at room temperature for 2 hours. The plate was then washed 8 times 300 μl in wash buffer with 2× NaCl. A GDF15 antibody as added at 1 ug/ml (RnD systems goat polyclonal) and incubated in block buffer for 1 hour at room temperature followed by washing with 4×300 μl wash buffer. HAF017 anti-goat-HRP antibody was added and incubated for 1 hour in blocking buffer followed by a wash. TMB substrate was added and stopped after 15 minutes with H2SO4. OD 450-620 was measured in an ELISA reader.
Polypeptides having sequences set forth in SEQ ID NOs:250-273 were assessed for binding to GDF15 (corresponding to the polypeptides indicated from left to right in FIG. 31). These proteins were synthesised with a C-terminal glycine residue not present in the corresponding sequences from CLPTM1. A cut-off of approximately greater than or equal to 0.1 OD in the ELISA readout was identified as indicating binding of the GDF15 to an immobilised polypeptide (i.e. including the 0.098 OD value for GDF15 binding to the polypeptide having the sequence set forth in SEQ ID NO:258).

[3] = target: T2, QRFPR; assay: ACTRIIB assay: in situ PLA detection of ACTRIIB at the cell surface after QRFPR agonist P518; assay type: cell-based
Description: A-C) In situ detection of QRFPR at the cell surface. A) Negative control cells with no added GDF15. B) Cells after exposure to GDF15. C) Cells after exposure to GDF15+ synthetic peptide GEKEYDDVTIK derived from extracellular domain 4 of QRFPR. […] D-F) In situ PLA detection of ACTRIIB at the cell surface. D) Control cells with no added P518. E) Cells after exposure to P518. F) Cells after exposure to P518+ synthetic peptide GEKEYDDVTIK derived from extracellular domain 4 of QRFPR in 125 molar excess. The ability of P518 to increase the level of ACTRIIB at the cell surface was not affected by the peptide.
The effect of the QRFPR agonist p518 was measured. In short, p518/QRFP-26 was purchased from Phoenix Peptides, CA and processed according to the manufacturer's instructions. Cells were serum-starved prior to P518 stimulation overnight.
P518 was mixed with either PBS or QRFPR receptor fragment dissolved in PBS prior to stimulation of cells.

[4] = target: T3, Growth and differentiation factor 15 …; assay: ELISA, biotinylated peptide in streptavidin wells, GDF15 at 100 ng/ml
Procedure: as §1, with “H₂SO₄.” for “H2SO4.”
Polypeptides having sequences set forth in SEQ ID NOs:250-273 were assessed for binding to GDF15 (corresponding to the polypeptides indicated from left to right in FIG. 31). These proteins were synthesised with a C-terminal glycine residue not present in the corresponding sequences from CLPTM1.

Molecule | binding of GDF15 to immobilised polypeptide ([2]; FIG. 31) | binding result [4] | also measured
Fc mouse IgG1-GGGGSGGGGSGGGGSQRLEIKYDFLYEKEH ({Fc mouse IgG1}-GGGGSGGGGSGGGGSQRLEIKYDFLYEKEH) [AP5, Fc fusion protein with QRFPR peptide] |  |  | pull down of GDF15 by Fc fusion protein [1]: capable of pulling down GDF15
GDYYPIIYFNDYWNLQKDYYG (listed as Homo sapiens) [SEQ ID NO:270] | showed binding to GDF15 |  | affinity for GDF15 (MIC1) within a panel of 24 CLPTM1 derived peptides [2]: highest affinity
GSIYIHVYFTKSGFHPDPRQG (listed as Homo sapiens) [SEQ ID NO:258] | showed binding to GDF15 |  | OD value in the ELISA readout for GDF15 binding ([2]; peptide immobilised at 1 μM, GDF15 100 ng/ml, OD 450-620, FIG. 31): 0.098 OD
ITINIVDDHTPWVKGSVPPPG (listed as Homo sapiens) [SEQ ID NO:262] | showed binding to GDF15 |  | 
KALYRRLATVHMSRMINKYKG (listed as Homo sapiens) [SEQ ID NO:259] | showed binding to GDF15 |  | 
LDQYVKFDAVSGDYYPIIYFG (listed as Homo sapiens) [SEQ ID NO:263] | showed binding to GDF15 |  | 
QRFP(43-mer): known agonist for QRFPR (QDEGSEATGFLPAAGEKTSGPLGNLAEELNGYSRKKGGFSFRF; ends and bridges not checked; UniProt P83859 91-133, looked up) |  |  | regulation of the levels of ACTRIIB by QRFPR agonists [3]: act in opposite manner to each other
YPINESLASLPLRVSFCPLSG (listed as Homo sapiens) [SEQ ID NO:269] | showed binding to GDF15 |  | 
p518: QRFPR agonist purchased from Phoenix Peptides (TSGPLGNLAEELNGYSRKKGGFSFRF) |  |  | regulation of the levels of ACTRIIB by QRFPR agonists [3]: act in opposite manner to each other; levels of ACTRIIB ([3]; p518 alone, serum-starved cells, overnight stimulation): sufficient to increase levels of ACTRIIB
KALYRRLATVHMSRMINKYKG (also: biotinylated, position not given here, Immobilised in streptavidin wells; the entry carries one added C-terminal G; also called (182-201)) [CLPTM1 peptide KALYRRLATVHMSRMINKYKG (SEQ ID NO: 259)] |  | binds | 
ITINIVDDHTPWVKGSVPPPG (also: biotinylated, position not given here, Immobilised in streptavidin wells; the entry carries one added C-terminal G; also called (242-260)) [CLPTM1 peptide ITINIVDDHTPWVKGSVPPPG (SEQ ID NO: 262)] |  | binds | 
LDQYVKFDAVSGDYYPIIYFG (also: biotinylated, position not given here, Immobilised in streptavidin wells; the entry carries one added C-terminal G; also called (262-280)) [CLPTM1 peptide LDQYVKFDAVSGDYYPIIYFG (SEQ ID NO: 263)] |  | binds | 
YPINESLASLPLRVSFCPLSG (also: biotinylated, position not given here, Immobilised in streptavidin wells; the entry carries one added C-terminal G; also called (292-311)) [CLPTM1 peptide YPINESLASLPLRVSFCPLSG (SEQ ID NO: 269)] |  | binds | 
GDYYPIIYFNDYWNLQKDYYG (also: biotinylated, position not given here, Immobilised in streptavidin wells; the entry carries one added C-terminal G; also called (273-292)) [CLPTM1 peptide GDYYPIIYFNDYWNLQKDYYG (SEQ ID NO: 270)] |  | binds | 
AAAQEADGARSAVVAAGGGSSGQVTSNGSIGRDPPAETQPQNPPAQPAPNAGGGGSGGGGSGGGGS-Fc mouse IgG1 (protein, control protein, Fc fusion) AAAQEADGARSAVVAAGGGSSGQVTSNGSIGRDPPAETQPQNPPAQPAPNAGGGGSGGGGSGGGGS-{Fc mouse IgG1} |  |  | pull down of GDF15 by Fc fusion protein [1]: did not interact with GDF15
